Test results from the supplement of paper PMC10201428.
± gives the standard deviation of the averaged measurements.

Tests used:
[1] = test system: VchCAST RNA-guided transposition machinery (E. coli BL21(DE3) host, lacZ target); test: relative integration efficiency (T-RL orientation) vs wild-type transposon end (log2 (normalized fold change)); transposon end mutated: right end (5 bp flank + 75 bp right end); higher = more efficient transposition
How it was run: (§1)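 Each barcoded pool, 1549 left-end or 1849 right-end transposon variants in a pUC57 mini-transposon donor, went into E. coli BL21(DE3) with a T7-driven effector plasmid (CRISPR array, tniQ-cas8-cas7-cas6, tnsA-tnsB-tnsC). Plates contained 0.1 mM IPTG and were held at 37°C for 18 h. Input plasmids and genomic integration junctions were PCR-amplified and read by Illumina sequencing, with two biological output replicates and four reference barcodes. Relative integration efficiency is the fold change of output over input barcode abundance, normalised to the reference barcodes and log-transformed.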

[2] = test system: VchCAST RNA-guided transposition machinery (E. coli BL21(DE3) host, lacZ target); test: relative integration efficiency (T-LR orientation) vs wild-type transposon end (log2 (normalized fold change)); transposon end mutated: right end (5 bp flank + 75 bp right end); higher = more efficient transposition
How it was run: as §1

Sequence | relative integration efficiency (log2) [1] | relative integration efficiency (log2) [2]
ACATTTGTTGATACAACCATAAAATGATAATTACACCCATAAATTGATAATTATCACACCGTTAAATTGATATTGCCTCTGATCATAGTCAGACCAACATTGCTACGACCCGTATTCGCACCGACAC | -0.625 ± 0.1 | 1.85 ± 0.26
ACATTTGTTGATACAACCATAAAATGATAATTACACCCATAAATTGATAATTATCACACGGATAAATTGATATTGCCTCTGATCATAGTCAGACCAACATTGCTACGACCCGTATTCGCACCGACAC | -0.238 ± 0.062 | 1.28 ± 0.22
ACATTTGTTGATACAACCATAAAATGATAATTACACCCATAAATTGATAATTATCACACGGTAAAATTGATATTGCCTCTGATCATAGTCAGACCAACATTGCTACGACCCGTATTCGCACCGACAC | -0.357 ± 0.043 | 2.35 ± 0.067
ACATTTGTTGATACAACCATAAAATGATAATTACACCCATAAATTGATAATTATCACAGGCATAAATTGATATTGCCTCTGATCATAGTCAGACCAACATTGCTACGACCCGTATTCGCACCGACAC | -0.0803 ± 0.09 | 0.567 ± 0.2
ACATTTGTTGATACAACCATAAAATGATAATTACACCCATAAATTGATAATTATCACAGGGTTAAATTGATATTGCCTCTGATCATAGTCAGACCAACATTGCTACGACCCGTATTCGCACCGACAC | -0.425 ± 0.14 | 2.33 ± 0.045
ACATTTGTTGATACAACCATAAAATGATAATTACACCCATAAATTGATAATTATCACCAAAATAAATTGATATTGCCTCTGATCATAGTCAGACCAACATTGCTACGACCCGTATTCGCACCGACAC | -0.112 ± 0.18 | 2.72 ± 0.1
ACATTTGTTGATACAACCATAAAATGATAATTACACCCATAAATTGATAATTATCACCAAACGCCCGGTCGCGGTAAGAGGATCATAGTCAGACCAACATTGCTACGACCCGTATTCGCACCGACAC | -0.505 ± 0.14 | 2.47 ± 0.095
ACATTTGTTGATACAACCATAAAATGATAATTACACCCATAAATTGATAATTATCACCACCATAAATTGATATTGCCTCTGATCATAGTCAGACCAACATTGCTACGACCCGTATTCGCACCGACAC | 0.659 ± 0.12 | 1.14 ± 0.095
ACATTTGTTGATACAACCATAAAATGATAATTACACCCATAAATTGATAATTATCACCCATAAATTGATATTGCCTCTGATCATAGTCAGACCAACATTGCTACGACCCGTATTCGCACCGACACTG | -0.448 ± 0.081 | 2.21 ± 0.045
ACATTTGTTGATACAACCATAAAATGATAATTACACCCATAAATTGATAATTATCACTGCCATAAATTGATATTGCCTCTGATCATAGTCAGACCAACATTGCTACGACCCGTATTCGCACCGACAC | -0.228 ± 0.042 | 1.72 ± 0.2
ACATTTGTTGATACAACCATAAAATGATAATTACACCCATAAATTGATAATTATCACTGGGATAAATTGATATTGCCTCTGATCATAGTCAGACCAACATTGCTACGACCCGTATTCGCACCGACAC | -0.4 ± 0.027 | 2.07 ± 0.067
ACATTTGTTGATACAACCATAAAATGATAATTACACCCATAAATTGATAATTATCAGTCCCATAAATTGATATTGCCTCTGATCATAGTCAGACCAACATTGCTACGACCCGTATTCGCACCGACAC | -0.441 ± 0.031 | 1.51 ± 0.031
ACATTTGTTGATACAACCATAAAATGATAATTACACCCATAAATTGATAATTATCAGTGGCATAAATTGATATTGCCTCTGATCATAGTCAGACCAACATTGCTACGACCCGTATTCGCACCGACAC | -0.377 ± 0.12 | 1.86 ± 0.12
ACATTTGTTGATACAACCATAAAATGATAATTACACCCATAAATTGATAATTATCAGTGGGTATTTAACTATAACGCTCTGATCATAGTCAGACCAACATTGCTACGACCCGTATTCGCACCGACAC | -0.681 ± 0.17 | 2.65 ± 0.1
ACATTTGTTGATACAACCATAAAATGATAATTACACCCATAAATTGATAATTATCCAACCCATAAATTGATATTGCCTCTGATCATAGTCAGACCAACATTGCTACGACCCGTATTCGCACCGACAC | -0.362 ± 0.18 | 0.964 ± 0.12
ACATTTGTTGATACAACCATAAAATGATAATTACACCCATAAATTGATAATTATCCACAAACGCCCGGTCGCGGTAAGAGGATCATAGTCAGACCAACATTGCTACGACCCGTATTCGCACCGACAC | -0.795 ± 0.075 | 2.3 ± 0.11
ACATTTGTTGATACAACCATAAAATGATAATTACACCCATAAATTGATAATTATCCACACCATAAATTGATATTGCCTCTGATCATAGTCAGACCAACATTGCTACGACCCGTATTCGCACCGACAC | -0.495 ± 0.13 | 0.485 ± 0.4
ACATTTGTTGATACAACCATAAAATGATAATTACACCCATAAATTGATAATTATCCACCCATAAATTGATATTGCCTCTGATCATAGTCAGACCAACATTGCTACGACCCGTATTCGCACCGACACT | -0.433 ± 0.14 | 0.607 ± 0.072
